Data as given in publication PMC5146963, “The mechanism of a formaldehyde-sensing transcriptional regulator” (Scientific Reports, 2016).
Residue numbers refer to the chain shown, from its start. Names and notes keep the numbering of the source.

B1: Escherichia coli FrmR (EcFrmR) (natural protein, Escherichia coli K-12, UniProt P0AAP3 2-91, looked up)
chain: PSTPEEKKKVLTRVRRIRGQIDALERSLEGDAECRAILQQIAAVRGAANGLMAEVLESHIRETFDRNDCYSREVSQSVDDTIELVRAYLK
notes: FrmR, transcriptional repressor of the frmRAB operon, E. coli K-12; last residue Lys91; frmR amplified from E. coli K12 genomic DNA and ligated into pET22b at NdeI and NcoI; no tag is mentioned and the measured mass fits the untagged protein without Met1; source: E. coli expression strains (JRG6782, 6783 and 6784), frmR in pET22b, purified (Heparin-HP, HiLoad Superdex 200)
B2: EcFrmR(C35A) (natural protein, Escherichia coli K-12, UniProt P0AAP3 2-91, looked up)
chain: B1 chain with C34A
notes: FrmR, E. coli K-12, with C35A; Mutation made by overlap PCR or Quikchange; also called C35A variant; source: E. coli expression strains (JRG6782, 6783 and 6784), purified (Heparin-HP, HiLoad Superdex 200)
B3: EcFrmR(P2A) (natural protein, Escherichia coli K-12, UniProt P0AAP3 2-91, looked up)
chain: B1 chain with P1A
notes: FrmR, E. coli K-12, with P2A; Mutation made by overlap PCR or Quikchange; also called P2A variant; source: E. coli expression strains (JRG6782, 6783 and 6784), purified (Heparin-HP, HiLoad Superdex 200)

Target: the molecule itself
Experiment: SEC; calibrated size exclusion chromatography column; elution volume compared with standards

| Protein | stoichiometry N |
| --- | --- |
| B1 | 4 |
| B2 | 4 |
| B3 | 4 |
